Target: T1, recombinant human IgE (human, UniProt P01854-1 1-428)
T1 construct: made in-house (ALK); preloaded on immobilised FcεRIα in the displacement ELISA
Test: IgE-FcεRIα displacement ELISA
Summary of the method: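 Streptavidin-coated plates carried site-specifically biotinylated recombinant human FcεRIα, loaded with recombinant human IgE at 13 ng/ml. sdAbs in a pM–μM series were added for 1 h, and displaced IgE was washed off. Percent displacement was the signal reduction versus the no-sdAb control, giving EC50 and maximal effect.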

T1 sequence (P01854 other isoform, or with tags, fused parts or gaps): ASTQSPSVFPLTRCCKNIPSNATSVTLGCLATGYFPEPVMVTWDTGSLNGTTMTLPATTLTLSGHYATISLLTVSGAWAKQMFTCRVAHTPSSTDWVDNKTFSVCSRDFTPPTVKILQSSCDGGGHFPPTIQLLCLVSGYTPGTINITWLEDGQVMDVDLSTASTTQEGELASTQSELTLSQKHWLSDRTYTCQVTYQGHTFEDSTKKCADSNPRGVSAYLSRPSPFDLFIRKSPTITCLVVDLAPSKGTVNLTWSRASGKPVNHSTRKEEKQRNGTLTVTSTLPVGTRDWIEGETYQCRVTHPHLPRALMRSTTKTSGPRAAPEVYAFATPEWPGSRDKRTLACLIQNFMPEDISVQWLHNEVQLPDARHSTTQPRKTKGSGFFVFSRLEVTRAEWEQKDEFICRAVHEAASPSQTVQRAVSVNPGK

B1: CIgG4F1A1(G4S)1 (Fc fusion)
chain 1: GPPCPPCPAPEFLGGPSVFLFPPKPKDTLMISRTPEVTCVVVDVSQEDPEVQFNWYVDGVEVHNAKTKPREEQFNSTYRVVSVLTVLHQDWLNGKEYKCKVSNKGLPSSIEKTISKAKGQPREPQVYTLPPCQEEMTKNQVSLWCLVKGFYPSDIAVEWESNGQPENNYKTTPPVLDSDGSFFLYSRLTVDKSRWQEGNVFSCSVMHEALHNHYTQKSLSLSLGKGGGGSDVQLQESGGGLVQAGGSLKLSCAASGGSLSRYDMGWFRQAPGKEREFVARISWSGTTKYYADAVKGRFAISRDNAKNTVYLQMNSLKPEDTAVYYCAAAFYGNRGYYDVNAYTSSGQGTQVTVS
chain 2: GPPCPPCPAPEFLGGPSVFLFPPKPKDTLMISRTPEVTCVVVDVSQEDPEVQFNWYVDGVEVHNAKTKPREEQFNSTYRVVSVLTVLHQDWLNGKEYKCKVSNKGLPSSIEKTISKAKGQPREPQVCTLPPSQEEMTKNQVSLSCAVKGFYPSDIAVEWESNGQPENNYKTTPPVLDSDGSFFLVSRLTVDKSRWQEGNVFSCSVMHEALHNHYTQKSLSLSLGKGGGGSEVQLLESGGGLVQPGGSLRLSCAASGFTFGNYDMAWVRQAPGKRPEWVSSIDTGGDITHYADSVKGRFTISRDNAKNTLYLQMNSLRPEDTAVYWCATDEEYALGPNEFDYYGQGTLVTVSS
- Max effect: 30%

B2: CIgG4F1A1(G4S)2 (Fc fusion)
chain 1: GPPCPPCPAPEFLGGPSVFLFPPKPKDTLMISRTPEVTCVVVDVSQEDPEVQFNWYVDGVEVHNAKTKPREEQFNSTYRVVSVLTVLHQDWLNGKEYKCKVSNKGLPSSIEKTISKAKGQPREPQVYTLPPCQEEMTKNQVSLWCLVKGFYPSDIAVEWESNGQPENNYKTTPPVLDSDGSFFLYSRLTVDKSRWQEGNVFSCSVMHEALHNHYTQKSLSLSLGKGGGGSGGGGSDVQLQESGGGLVQAGGSLKLSCAASGGSLSRYDMGWFRQAPGKEREFVARISWSGTTKYYADAVKGRFAISRDNAKNTVYLQMNSLKPEDTAVYYCAAAFYGNRGYYDVNAYTSSGQGTQVTVS
chain 2: GPPCPPCPAPEFLGGPSVFLFPPKPKDTLMISRTPEVTCVVVDVSQEDPEVQFNWYVDGVEVHNAKTKPREEQFNSTYRVVSVLTVLHQDWLNGKEYKCKVSNKGLPSSIEKTISKAKGQPREPQVCTLPPSQEEMTKNQVSLSCAVKGFYPSDIAVEWESNGQPENNYKTTPPVLDSDGSFFLVSRLTVDKSRWQEGNVFSCSVMHEALHNHYTQKSLSLSLGKGGGGSGGGGSEVQLLESGGGLVQPGGSLRLSCAASGFTFGNYDMAWVRQAPGKRPEWVSSIDTGGDITHYADSVKGRFTISRDNAKNTLYLQMNSLRPEDTAVYWCATDEEYALGPNEFDYYGQGTLVTVSS
- EC50: 800 nM
- Max effect: 55%

B3: CIgG4F1A1(G4S)3 (Fc fusion)
chain 1: GPPCPPCPAPEFLGGPSVFLFPPKPKDTLMISRTPEVTCVVVDVSQEDPEVQFNWYVDGVEVHNAKTKPREEQFNSTYRVVSVLTVLHQDWLNGKEYKCKVSNKGLPSSIEKTISKAKGQPREPQVYTLPPCQEEMTKNQVSLWCLVKGFYPSDIAVEWESNGQPENNYKTTPPVLDSDGSFFLYSRLTVDKSRWQEGNVFSCSVMHEALHNHYTQKSLSLSLGKGGGGSGGGGSGGGGSDVQLQESGGGLVQAGGSLKLSCAASGGSLSRYDMGWFRQAPGKEREFVARISWSGTTKYYADAVKGRFAISRDNAKNTVYLQMNSLKPEDTAVYYCAAAFYGNRGYYDVNAYTSSGQGTQVTVS
chain 2: GPPCPPCPAPEFLGGPSVFLFPPKPKDTLMISRTPEVTCVVVDVSQEDPEVQFNWYVDGVEVHNAKTKPREEQFNSTYRVVSVLTVLHQDWLNGKEYKCKVSNKGLPSSIEKTISKAKGQPREPQVCTLPPSQEEMTKNQVSLSCAVKGFYPSDIAVEWESNGQPENNYKTTPPVLDSDGSFFLVSRLTVDKSRWQEGNVFSCSVMHEALHNHYTQKSLSLSLGKGGGGSGGGGSGGGGSEVQLLESGGGLVQPGGSLRLSCAASGFTFGNYDMAWVRQAPGKRPEWVSSIDTGGDITHYADSVKGRFTISRDNAKNTLYLQMNSLRPEDTAVYWCATDEEYALGPNEFDYYGQGTLVTVSS
- EC50: 480 nM
- Max effect: 65%

B4: CIgG4F2A1(RS) (Fc fusion)
chain 1: GPPCPPCPAPEFLGGPSVFLFPPKPKDTLMISRTPEVTCVVVDVSQEDPEVQFNWYVDGVEVHNAKTKPREEQFNSTYRVVSVLTVLHQDWLNGKEYKCKVSNKGLPSSIEKTISKAKGQPREPQVYTLPPCQEEMTKNQVSLWCLVKGFYPSDIAVEWESNGQPENNYKTTPPVLDSDGSFFLYSRLTVDKSRWQEGNVFSCSVMHEALHNHYTQKSLSLSLGKRSDVQLQESGGGLVQAGGSLKLSCAASGGSLSRYDMGWFRQAPGKEREFVARISWSGDTKYYADAVEGRFAISRDNAQNTVYLQMNSLKPEDTAVYYCAVALYGNRGYYDVNTYSYWGQGTRVTVS
chain 2: GPPCPPCPAPEFLGGPSVFLFPPKPKDTLMISRTPEVTCVVVDVSQEDPEVQFNWYVDGVEVHNAKTKPREEQFNSTYRVVSVLTVLHQDWLNGKEYKCKVSNKGLPSSIEKTISKAKGQPREPQVCTLPPSQEEMTKNQVSLSCAVKGFYPSDIAVEWESNGQPENNYKTTPPVLDSDGSFFLVSRLTVDKSRWQEGNVFSCSVMHEALHNHYTQKSLSLSLGKRSEVQLLESGGGLVQPGGSLRLSCAASGFTFGNYDMAWVRQAPGKRPEWVSSIDTGGDITHYADSVKGRFTISRDNAKNTLYLQMNSLRPEDTAVYWCATDEEYALGPNEFDYYGQGTLVTVSS
- Max effect: 10%

B5: CIgG4F2A1(G4S)1 (Fc fusion)
chain 1: GPPCPPCPAPEFLGGPSVFLFPPKPKDTLMISRTPEVTCVVVDVSQEDPEVQFNWYVDGVEVHNAKTKPREEQFNSTYRVVSVLTVLHQDWLNGKEYKCKVSNKGLPSSIEKTISKAKGQPREPQVYTLPPCQEEMTKNQVSLWCLVKGFYPSDIAVEWESNGQPENNYKTTPPVLDSDGSFFLYSRLTVDKSRWQEGNVFSCSVMHEALHNHYTQKSLSLSLGKGGGGSDVQLQESGGGLVQAGGSLKLSCAASGGSLSRYDMGWFRQAPGKEREFVARISWSGDTKYYADAVEGRFAISRDNAQNTVYLQMNSLKPEDTAVYYCAVALYGNRGYYDVNTYSYWGQGTRVTVS
chain 2: GPPCPPCPAPEFLGGPSVFLFPPKPKDTLMISRTPEVTCVVVDVSQEDPEVQFNWYVDGVEVHNAKTKPREEQFNSTYRVVSVLTVLHQDWLNGKEYKCKVSNKGLPSSIEKTISKAKGQPREPQVCTLPPSQEEMTKNQVSLSCAVKGFYPSDIAVEWESNGQPENNYKTTPPVLDSDGSFFLVSRLTVDKSRWQEGNVFSCSVMHEALHNHYTQKSLSLSLGKGGGGSEVQLLESGGGLVQPGGSLRLSCAASGFTFGNYDMAWVRQAPGKRPEWVSSIDTGGDITHYADSVKGRFTISRDNAKNTLYLQMNSLRPEDTAVYWCATDEEYALGPNEFDYYGQGTLVTVSS
- Max effect: 20%

B6: CIgG4F2A1(G4S)2 (Fc fusion)
chain 1: GPPCPPCPAPEFLGGPSVFLFPPKPKDTLMISRTPEVTCVVVDVSQEDPEVQFNWYVDGVEVHNAKTKPREEQFNSTYRVVSVLTVLHQDWLNGKEYKCKVSNKGLPSSIEKTISKAKGQPREPQVYTLPPCQEEMTKNQVSLWCLVKGFYPSDIAVEWESNGQPENNYKTTPPVLDSDGSFFLYSRLTVDKSRWQEGNVFSCSVMHEALHNHYTQKSLSLSLGKGGGGSGGGGSDVQLQESGGGLVQAGGSLKLSCAASGGSLSRYDMGWFRQAPGKEREFVARISWSGDTKYYADAVEGRFAISRDNAQNTVYLQMNSLKPEDTAVYYCAVALYGNRGYYDVNTYSYWGQGTRVTVS
chain 2: GPPCPPCPAPEFLGGPSVFLFPPKPKDTLMISRTPEVTCVVVDVSQEDPEVQFNWYVDGVEVHNAKTKPREEQFNSTYRVVSVLTVLHQDWLNGKEYKCKVSNKGLPSSIEKTISKAKGQPREPQVCTLPPSQEEMTKNQVSLSCAVKGFYPSDIAVEWESNGQPENNYKTTPPVLDSDGSFFLVSRLTVDKSRWQEGNVFSCSVMHEALHNHYTQKSLSLSLGKGGGGSGGGGSEVQLLESGGGLVQPGGSLRLSCAASGFTFGNYDMAWVRQAPGKRPEWVSSIDTGGDITHYADSVKGRFTISRDNAKNTLYLQMNSLRPEDTAVYWCATDEEYALGPNEFDYYGQGTLVTVSS
- Max effect: 35%

B7: CIgG4F2A1(G4S)3 (Fc fusion)
chain 1: GPPCPPCPAPEFLGGPSVFLFPPKPKDTLMISRTPEVTCVVVDVSQEDPEVQFNWYVDGVEVHNAKTKPREEQFNSTYRVVSVLTVLHQDWLNGKEYKCKVSNKGLPSSIEKTISKAKGQPREPQVYTLPPCQEEMTKNQVSLWCLVKGFYPSDIAVEWESNGQPENNYKTTPPVLDSDGSFFLYSRLTVDKSRWQEGNVFSCSVMHEALHNHYTQKSLSLSLGKGGGGSGGGGSGGGGSDVQLQESGGGLVQAGGSLKLSCAASGGSLSRYDMGWFRQAPGKEREFVARISWSGDTKYYADAVEGRFAISRDNAQNTVYLQMNSLKPEDTAVYYCAVALYGNRGYYDVNTYSYWGQGTRVTVS
chain 2: GPPCPPCPAPEFLGGPSVFLFPPKPKDTLMISRTPEVTCVVVDVSQEDPEVQFNWYVDGVEVHNAKTKPREEQFNSTYRVVSVLTVLHQDWLNGKEYKCKVSNKGLPSSIEKTISKAKGQPREPQVCTLPPSQEEMTKNQVSLSCAVKGFYPSDIAVEWESNGQPENNYKTTPPVLDSDGSFFLVSRLTVDKSRWQEGNVFSCSVMHEALHNHYTQKSLSLSLGKGGGGSGGGGSGGGGSEVQLLESGGGLVQPGGSLRLSCAASGFTFGNYDMAWVRQAPGKRPEWVSSIDTGGDITHYADSVKGRFTISRDNAKNTLYLQMNSLRPEDTAVYWCATDEEYALGPNEFDYYGQGTLVTVSS
- Max effect: 45%

B8: CIgG4F3A1(RS) (Fc fusion)
chain 1: GPPCPPCPAPEFLGGPSVFLFPPKPKDTLMISRTPEVTCVVVDVSQEDPEVQFNWYVDGVEVHNAKTKPREEQFNSTYRVVSVLTVLHQDWLNGKEYKCKVSNKGLPSSIEKTISKAKGQPREPQVYTLPPCQEEMTKNQVSLWCLVKGFYPSDIAVEWESNGQPENNYKTTPPVLDSDGSFFLYSRLTVDKSRWQEGNVFSCSVMHEALHNHYTQKSLSLSLGKRSDVQLQESGGGLVQAGGSLKLSCAASRGSLSRWDVAWFRQAPGKERSFVTRISWSGTTSYYADAVKGRFAISRDNAKNTVYLQMNSLKPEDTAVYYCAVALYGNRGYYDVNAHSYWGQGTQVTVS
chain 2: GPPCPPCPAPEFLGGPSVFLFPPKPKDTLMISRTPEVTCVVVDVSQEDPEVQFNWYVDGVEVHNAKTKPREEQFNSTYRVVSVLTVLHQDWLNGKEYKCKVSNKGLPSSIEKTISKAKGQPREPQVCTLPPSQEEMTKNQVSLSCAVKGFYPSDIAVEWESNGQPENNYKTTPPVLDSDGSFFLVSRLTVDKSRWQEGNVFSCSVMHEALHNHYTQKSLSLSLGKRSEVQLLESGGGLVQPGGSLRLSCAASGFTFGNYDMAWVRQAPGKRPEWVSSIDTGGDITHYADSVKGRFTISRDNAKNTLYLQMNSLRPEDTAVYWCATDEEYALGPNEFDYYGQGTLVTVSS
- Max effect: 30%

From patent US20250171562A1 (ALK ABELL, published 2025)
